This note sets out measurements from patent US20030198598A1, “Polypeptide derivatives” (priority 1989, published 2003).

Where a SMILES comes first, the peptide text is derived from it. [ ]: non-standard residue; d: D form. The star is where a group is joined. DTPA = O=C(O)CN(CCN(CC(=O)O)CC(=O)O)CCN(CC(=O)O)CC(=O)*; dPhe(4-Cl) = N[C@H](Cc1ccc(Cl)cc1)C(=O)O

The target of one data set is T1, LHRH-receptors (Rattus norvegicus, UniProt P30969).
T1 construct: LHRH receptor positive anterior pituitary membranes from male Sprague-Dawley rats; from tissue; host or cells: anterior pituitary membranes of male Sprague-Dawley rats
T1 sequence (P30969 1-327): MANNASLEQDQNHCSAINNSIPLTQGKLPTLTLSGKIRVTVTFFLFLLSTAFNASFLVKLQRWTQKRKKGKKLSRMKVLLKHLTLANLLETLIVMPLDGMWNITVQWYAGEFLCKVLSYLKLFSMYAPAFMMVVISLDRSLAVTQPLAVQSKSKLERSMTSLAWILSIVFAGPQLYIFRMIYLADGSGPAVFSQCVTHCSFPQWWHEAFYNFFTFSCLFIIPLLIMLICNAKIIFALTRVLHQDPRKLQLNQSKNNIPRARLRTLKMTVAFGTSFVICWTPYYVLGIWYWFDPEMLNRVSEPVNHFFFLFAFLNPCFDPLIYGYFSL
Kind of data set: Binding assay on LHRH receptor positive anterior pituitary membranes. On the set-up: species or system male Sprague-Dawley rats. The following applies: labelled with 0.4 mCi 111InCl3, 10^-6 M (DAla6)LHRH for non-specific binding.

Data set [1] addresses T2, EGF receptor (Homo sapiens, UniProt P00533).
T2 construct: Membranes are isolated by differential centrifugation; from tissue; host or cells: EGF receptor positive human tumor (membranes)
Kind of data set: Inhibition of specifically bound [125I]-EGF on membranes of an EGF receptor positive human tumor. Format: binding. The following applies: 30 min at 37° C. The method, then: (§1) An EGF receptor positive human tumor is removed and immediately stored at −70° C. During the subsequent isolation procedure this material is kept at 0 to 4° C. The tumor tissue is dissected into small cubes prior to homogenisation in 5 parts of Buffer A (20 mM HEPES, 0.1 mM EDTA and 250 mM sucrose, pH 7.4). Membranes are isolated by differential centrifugation. The material is then diluted in the incubation buffer containing 30 mM HEPES, pH 7.4, 1 mg/ml BSA and 1 mM benzamidine. The test mixture (200 μl final volume) contains 100 000 cpm [^125I]-EGF, the tissue (5 to 25 μg protein/assay) and compound of Example 3 at a concentration of 10^−9 M. After mixing the icecold test solution on a vortex the tubes (polypropylene) are transfered to a waterbath and incubated for 30 min at 37° C. The reaction is stopped by addition of icecold Hank's or Tris buffer (4 ml). The Tris buffer contains 10 mM Tris in 0.9% sodium chloride solution and is adjusted to pH 7.4. Routinely, filtration buffers contain 1% BSA (Fraction V) to suppress non-specific binding to the glass fiber filters (type A/E) that have been soaked in the filtration buffer a few minutes prior to use. The tubes are rinsed with 4 ml of the filtration buffer and the rinsing fluid is put over the respective filters. A third wash of the filters is followed by drying and the measurement of the filter-bound radioactivity in a γ-counter. […]

The target of data set [2] is T2, EGF receptor. The experiment in a line: Similar binding assay with the 111In labelled compound as test substance, non-specific binding with 10^-7 M EGF. The conditions noted are these: compound of Example 3 labelled with 0.2 mCi 111InCl3; controls with 10^-7 M EGF. As for the experimental part: as §1, with “The test mixture (200 μl final volume) contains 100 000 cpm [^125I]-EGF, the tissue (5 to 25 μg protein/assay) and compound of Example 3 at a concentration of 10^−9 M.” left out, “γ-counter. The washing of the filters takes approximately 10 sec.” for “γ-counter.”

Data set [3] has as its system EGF receptor positive tumour (MDA 231, MDA 468 or A 431 tumors). More on the design: species or system nude mice. The following applies: mouse, in vivo, iv. As for the experimental part: Biodistribution of radioactivity may be determined either with standard imaging techniques in nude mice weighing 20+5 g and bearing an EGF receptor positive tumour (MDA 231, MDA 468 or A 431 tumors) or through serial sacrifice of a number of such animals and determination of the organ radioactivity. Compound of Example 4 is administered i.v. to the animals at a dosage corresponding to 90-10 μCi and the radioactivity is assessed 5 min, 10 min, 15 min, 30 min, 60 min, 20 hrs and 48 hrs.

As a reminder, the IC50 is the concentration that gives 50% inhibition. Lower therefore signals greater potency in that assay. With `CC(=O)N[C@H](Cc1ccc(Cl)cc1)C(=O)N[C@H](Cc1ccc(Cl)cc1)C(=O)N[C@H](Cc1c[nH]c2ccccc12)C(=O)N[C@@H](CO)C(=O)N[C@@H](Cc1ccc(O)cc1)C(=O)N[C@H](CCCCNC(=O)CN(CCN(CCN(CC(=O)O)CC(=O)O)CC(=O)O)CC(=O)O)C(=O)N[C@@H](CC(C)C)C(=O)N[C@@H](CCCNC(=N)N)C(=O)N1CCC[C@H]1C(=O)N[C@H](C)C(N)=O` [^111In labelled compound of Example 8, metal not drawn] (Ac-[dPhe(4-Cl)][dPhe(4-Cl)][dW]SY[dK](DTPA)LRP[dA]-NH2), the IC50 on LHRH-receptors worked out at 1.1 nM.
As to DTPA-β-Ala-mEGF [Example 3], the IC50 in the data set with EGF receptor [1] came to 1.3 nM.
As to “^111In Labeled DTPA-β-Ala-mEGF [Example 4]”, in the data set with EGF receptor [2], the IC50 is 3 nM. Moreover, in data set [3], the “Localisation of radioactivity 5 minutes after injection” value is “radioactivity is detected in the liver, kidneys, urinary bladder and in the tumor site”; the “Localisation of radioactivity 60 min after injection” value was “Radioactivity is increasing and is localized on the tumor site”.
